Consider 7 sequences from the Immune Epitope Database (IEDB).

In test [1] the target is HLA-B*48:01. Put plainly: IEDB peptide-MHC binding, purified MHC/competitive/fluorescence; filed as Kd, often an IC50 or EC50 that approximates it; ≥ and ≤ were set here for values at or beyond the usual limits of such assays.
The target of another test is HLA-A*03:01. Kind of test: IEDB peptide-MHC binding, purified MHC/direct/fluorescence; filed as Kd, often an IC50 or EC50 that approximates it; ≥ and ≤ were set here for values at or beyond the usual limits of such assays.
A further test concerns the target HLA-A*26:01. Described as above.
In the next test the target is HLA-A*01:01. Described as above.
The target in the next test is HLA-A*11:01. Described as above.
The target of another test is HLA-B*15:02. Described as above.
Another test concerns the target HLA-A*69:01. The description is as above.
Another test has as its target HLA-B*35:01. The description is as above.
The next test has as its target HLA-B*44:02. The description is as above.
The next test concerns the target HLA-A*31:01. The description is as above.
In the next test the target is HLA-B*46:01. Described as above.
For another test, the target named is HLA-B*27:05. The description is as above.
Another test addresses HLA-B*58:01. The description is as above.
Another test concerns the target HLA-B*40:01. Described as above.
For another test, the target named is HLA-A*02:01. Described as above.
The target in another test is HLA-B*07:02. The test is described as above.
The next test addresses HLA-B*15:01. Described as above.
For another test, the target named is HLA-B*08:01. The test is described as above.
Another test addresses HLA-B*51:01. The test is described as above. The following applies: source organism: Mycobacterium tuberculosis.
A further test addresses HLA-B*39:01. The description is as above. The following applies: source organism: Mycobacterium tuberculosis str. Haarlem.
In a further test the target is HLA-B*57:01. The test is described as above. The following applies: source organism: Mycobacterium tuberculosis.
The next test addresses HLA-A*02:06. Described as above.
The next test deals with HLA-B*15:17. Described as above. The conditions noted are these: source organism: Mycobacterium tuberculosis.
In the next test the target is HLA-A*30:01. The description is as above. The following applies: source organism: Mycobacterium tuberculosis str. Haarlem.
The target of a further test is HLA-B*38:01. The description is as above. The conditions noted are these: source organism: Mycobacterium tuberculosis str. Haarlem.
Test [2] addresses HLA-B*48:01. The description is as above. The conditions noted are these: source organism: Mycobacterium tuberculosis.
A further test addresses HLA-B*18:01. Described as above. The following applies: source organism: Mycobacterium tuberculosis.
Another test concerns the target HLA-B*08:02. The description is as above. The conditions noted are these: source organism: Mycobacterium tuberculosis str. Haarlem.
The next test has as its target HLA-A*02:12. The test is described as above. The conditions noted are these: source organism: Influenza A virus(A/swine/Shandong/fNY/2003(H9N2)).
In the next test the target is HLA-A*02:16. The test is described as above. The conditions noted are these: source organism: Influenza A virus(A/swine/Shandong/fNY/2003(H9N2)).
A further test has as its target HLA-A*02:19. The description is as above. The following applies: source organism: Influenza A virus(A/swine/Shandong/fNY/2003(H9N2)).
The next test concerns the target HLA-A*24:02. The test is described as above. The following applies: source organism: Influenza A virus (A/Viet Nam/HN/2004(H5N1)).
The next test concerns the target HLA-A*02:03. Described as above. The conditions noted are these: source organism: Influenza A virus(A/swine/Shandong/fNY/2003(H9N2)).
The target in the next test is HLA-A*02:11. Described as above. The following applies: source organism: Influenza A virus(A/swine/Shandong/fNY/2003(H9N2)).
Where [3] appears, read: source organism: Escherichia coli O157:H7.
[4] abbreviates: source organism: Escherichia coli.
The mark [5] stands for this setting: source organism: Mycobacterium tuberculosis.
[6] abbreviates: source organism: Yersinia pestis Antiqua.
[7] abbreviates: source organism: Yersinia pestis.
Setting [8] is: source organism: Vibrio vulnificus.
The mark [9] stands for this setting: source organism: Influenza A virus (A/Puerto Rico/8/34/Mount Sinai(H1N1)).
Where [10] appears, read: source organism: Influenza A virus (A/Viet Nam/HN/2004(H5N1)).

A value given as a limit tells only on which side of the number the result lay.

Turning to KEFNGPAML, in the test with HLA-B*48:01 [1] (source organism: Entamoeba histolytica HM-1:IMSS), the Kd – broadly, the concentration at which binding is half-saturated – was determined as 0.439 µM.

For the sequence YLGTPNNTY, the Kd in the test with HLA-A*03:01 (setting [3]) was at least 20 µM; in the test with HLA-A*26:01 (setting [3]) it was at least 20 µM; in the test with HLA-A*01:01 (setting [4]), 0.284 µM; in the test with HLA-A*11:01 (setting [3]), at least 20 µM; with HLA-B*15:02 (setting [3]), 0.0094 µM; in the test with HLA-A*69:01 (setting [3]), at least 20 µM. The Kd with HLA-B*35:01 (setting [4]) is 0.325 µM; in the test with HLA-B*44:02 (setting [3]) it was at least 20 µM; in the test with HLA-A*31:01 (setting [3]) it was at least 20 µM; with HLA-B*46:01 (setting [3]), at least 20 µM; in the test with HLA-B*27:05 (setting [3]), at least 20 µM; in the test with HLA-B*58:01 (setting [3]) it was at least 20 µM. For the same sequence, the Kd was at least 20 µM in the test with HLA-B*40:01 (setting [3]); at least 20 µM with HLA-A*02:01 (setting [3]); at least 20 µM with HLA-B*07:02 (setting [3]); 0.137 µM with HLA-B*15:01 (setting [4]); at least 20 µM with HLA-B*08:01 (setting [3]).

Turning to RGRIGRTYL, the Kd in the test with HLA-B*51:01, with HLA-A*03:01 (setting [5]), in the test with HLA-A*01:01 (setting [5]), in the test with HLA-A*11:01 (setting [5]), with HLA-A*69:01 (setting [5]) and with HLA-B*39:01 was at least 20 µM in each case. Besides, the Kd with HLA-B*57:01 is at least 20 µM; in the test with HLA-A*02:06 (source organism: Mycobacterium tuberculosis str. Haarlem), at least 20 µM; with HLA-B*15:17, 0.0687 µM; in the test with HLA-A*30:01, 0.023 µM; with HLA-B*38:01 it was at least 20 µM; with HLA-A*31:01 (setting [5]) it was at least 20 µM. For the same sequence, the Kd with HLA-B*46:01 (setting [5]) was at least 20 µM; with HLA-B*58:01 (setting [5]), at least 20 µM; with HLA-B*48:01 [2], 3.04 µM; with HLA-B*40:01 (setting [5]), at least 20 µM; in the test with HLA-A*02:01 (setting [5]) it was at least 20 µM; with HLA-B*18:01 it was at least 20 µM. Also, the Kd with HLA-B*07:02 (setting [5]) is 0.003 µM; with HLA-B*08:02, at least 20 µM; with HLA-B*15:01 (setting [5]), at least 20 µM.

Turning to FQLYSDLAH, the dissociation constant (Kd) is at least 20 µM in the test with HLA-A*03:01 (setting [6]); at least 20 µM with HLA-A*26:01 (setting [6]); at least 20 µM with HLA-A*01:01 (setting [6]); at least 20 µM in the test with HLA-A*11:01 (setting [6]); 0.0259 µM with HLA-B*15:02 (setting [6]); at least 20 µM in the test with HLA-A*69:01 (setting [6]). Further, the Kd is 0.861 µM with HLA-B*35:01 (setting [7]); at least 20 µM with HLA-B*44:02 (setting [6]); at least 20 µM with HLA-A*31:01 (setting [6]); 2.27 µM in the test with HLA-B*46:01 (setting [6]); at least 20 µM with HLA-B*58:01 (setting [6]); at least 20 µM in the test with HLA-B*40:01 (setting [6]). For the same sequence, the Kd with HLA-A*02:01 (setting [7]) was 1.91 µM; with HLA-B*07:02 (setting [6]), at least 20 µM; in the test with HLA-B*15:01 (setting [7]), 0.0682 µM; with HLA-B*08:01 (setting [6]), at least 20 µM.

As to LLTQSNAGF, the Kd is at least 20 µM with HLA-A*03:01 (setting [8]); at least 20 µM with HLA-A*26:01 (setting [8]); at least 20 µM with HLA-A*01:01 (setting [8]); at least 20 µM with HLA-A*11:01 (setting [8]); 0.049 µM with HLA-B*15:02 (source organism: Vibrio vulnificus CMCP6); at least 20 µM with HLA-A*69:01 (setting [8]). Further, the Kd in the test with HLA-B*35:01 (setting [8]) is 0.345 µM; with HLA-B*44:02 (setting [8]) it was at least 20 µM; in the test with HLA-A*31:01 (setting [8]) it was at least 20 µM; with HLA-B*46:01 (setting [8]) it was at least 20 µM; in the test with HLA-B*27:05 (setting [8]) it was at least 20 µM; in the test with HLA-B*40:01 (setting [8]), at least 20 µM. For the same sequence, the Kd with HLA-B*07:02 (setting [8]) was at least 20 µM; in the test with HLA-B*15:01 (setting [8]), 0.146 µM; in the test with HLA-B*08:01 (setting [8]), at least 20 µM.

For VSPLAVTWW, the dissociation constant Kd with HLA-A*03:01 (setting [9]) was 0.173 µM; with HLA-A*01:01 (setting [10]) it was at least 20 µM; with HLA-A*02:12 it was 3.54 µM; with HLA-A*02:16, 0.131 µM; with HLA-A*69:01 (setting [10]), at least 20 µM; with HLA-A*02:19 it was at least 20 µM. The Kd with HLA-A*02:06 (source organism: Influenza A virus(A/swine/Shandong/fNY/2003(H9N2))) is at least 20 µM; with HLA-A*24:02, at least 20 µM; with HLA-B*44:02 (setting [10]), at least 20 µM; with HLA-B*46:01 (setting [10]), at least 20 µM; with HLA-B*27:05 (setting [9]), 0.161 µM; with HLA-A*02:03 it was 0.029 µM. Further, the Kd was at least 20 µM with HLA-B*40:01 (setting [10]); 1.08 µM with HLA-A*02:01 (setting [9]); 0.032 µM in the test with HLA-A*02:11; at least 20 µM with HLA-B*07:02 (setting [10]); 2.2 µM in the test with HLA-B*15:01 (setting [9]); at least 20 µM in the test with HLA-B*08:01 (setting [10]).

For RQQAIVDLL, the dissociation constant (Kd) with HLA-B*48:01 [1] (source organism: Shigella flexneri 5 str. 8401) was found to be 0.153 µM.
